# Measured values reported in article PMC5999314.
# pKd: −log10 of the molar value.
# Molecular target: dengue poly-immunoglobulin G scaffold (D-PIGS), unfractionated, from ∆XF N. benthamiana
# Experiment: SPR; Biacore X100, affinity layout: 200 RU of D-PIGS (unfractionated) or hIgG1 captured on immobilised protein A (CM5 chip); CD16a or CD64 injected as analyte, 12.5 to 800 nM, contact 60 s, 50 uL/min, dissociation 200 s; two-state model for CD16a, 1:1 model for CD64
substance,measurement,value
recombinant human CD16a (from UniProt P08637 17-208) (receptor),pKd,7.61
